Seven molecules from patent publication US20170319688A1 (Genentech, published 2017) can be followed below.

Assay in all cases: SPR (BIAcore T200), RSPO3 immobilized, antibody injected, 25 C, 1:1 Langmuir
For one assay, the target named is T1, cynomolgus RSPO3 (cynomolgus, UniProt A0A2K5UTQ7 22-273).
T1 construct: also called cyno RSPO3
T1 sequence: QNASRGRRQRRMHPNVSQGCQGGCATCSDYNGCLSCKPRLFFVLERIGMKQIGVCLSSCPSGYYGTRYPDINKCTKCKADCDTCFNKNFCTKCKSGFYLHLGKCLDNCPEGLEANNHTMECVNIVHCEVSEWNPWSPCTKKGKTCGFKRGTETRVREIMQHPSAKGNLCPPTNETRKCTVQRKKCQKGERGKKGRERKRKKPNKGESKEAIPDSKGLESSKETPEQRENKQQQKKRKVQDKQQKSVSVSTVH

The target of assay [1] is T2, murine RSPO3 (R&D Systems Cat. No. 4120-RS/CF) (murine, UniProt Q2TJ95 22-277, limits assumed).
T2 construct: also called mouse RSPO3
T2 sequence (looked up): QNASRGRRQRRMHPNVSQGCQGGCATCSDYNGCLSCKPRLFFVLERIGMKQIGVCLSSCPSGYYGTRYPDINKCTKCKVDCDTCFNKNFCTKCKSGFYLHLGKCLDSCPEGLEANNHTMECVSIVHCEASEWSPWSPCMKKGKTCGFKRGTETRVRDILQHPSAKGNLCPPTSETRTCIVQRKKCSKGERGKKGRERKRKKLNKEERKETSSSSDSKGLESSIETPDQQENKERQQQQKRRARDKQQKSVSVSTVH

For a further assay, the target named is T3, human RSPO3 (human, UniProt Q9BXY4 22-272).
T3 construct: Recombinant human RSPO3 protein (Genentech); also called huRSPO3; hRSPO3
T3 sequence: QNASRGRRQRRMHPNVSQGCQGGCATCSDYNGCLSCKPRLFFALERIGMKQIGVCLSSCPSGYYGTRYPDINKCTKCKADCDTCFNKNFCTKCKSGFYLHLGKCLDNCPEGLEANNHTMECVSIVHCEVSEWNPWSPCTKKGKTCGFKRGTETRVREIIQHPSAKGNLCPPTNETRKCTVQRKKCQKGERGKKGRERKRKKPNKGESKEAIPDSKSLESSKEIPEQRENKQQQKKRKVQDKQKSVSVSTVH

B1: hu4A6.L4H2 (antibody, V domains shown)
VH: EVQLVESGGGVVQPGRSLRLSCAASGFTFSDYDMAWVRQAPGKGLEWVATIIYDGSRTYYRDSVKGRFTISRDNSKNTLYLQMNSLRAEDTAVYYCAAHDRSFDYWGQGTMVTVSS
VL: DIQMTQSPSSLSASVGDRVTITCLASEDISNDLVWYQQKPGKAPKLLIYAASRLQDGVPSRFSGSGFGTDFTLTISSLQPEDFATYYCQQSYKYLPTFGQGTKLEIK
notes: CDR graft only (L4, H2); also called humanized 4A6
In the case of B1, the results for the dissociation constant (Kd) (with cynomolgus RSPO3; in assay [1]; in the assay with human RSPO3) were 0.247 nM, 0.441 nM and 0.434 nM, respectively. The values for the koff (with cynomolgus RSPO3; in assay [1]; with human RSPO3) were 5.95e-05 s⁻¹, 8.08e-05 s⁻¹ and 8.47e-05 s⁻¹, respectively. In addition, the values for the on-rate (kon) (with cynomolgus RSPO3; in assay [1]; in the assay with human RSPO3) were 241000 M⁻¹ s⁻¹, 183000 M⁻¹ s⁻¹ and 195000 M⁻¹ s⁻¹, respectively.

B2: hu11C10.L5H1 (antibody, V domains shown)
VH: EVQLVESGGGVVQPGRSLRLSCAASGFTFSDYDMAWVRQAPGKGLEWVATIIYDGSRTYYRDSVKGRFTISRDNSKNTLYLQMNSLRAEDTAVYYCATHDKTFDYWGQGTMVTVSS
VL: DIQLTQSPSSLSASVGDRVTITCRASEDIYSDLAWYQQKPGKAPKLLIYDVNSLIHGVPSRFSGSGSGTDFTLTISSLQPEDFATYYCQQYDNYPNTFGQGTKLEIK
notes: CDR graft light chain L5 with H1; also called humanized 11C10
In the case of B2, the values for the Kd (with cynomolgus RSPO3; in assay [1]; in the assay with human RSPO3) were 1.75 nM, 3.22 nM and 3.01 nM, respectively. Besides, the figures for the off-rate constant (koff) (in the assay with cynomolgus RSPO3; in assay [1]; in the assay with human RSPO3) were 0.00121 s⁻¹, 0.00138 s⁻¹ and 0.00145 s⁻¹, respectively. Further, the kon with cynomolgus RSPO3 is 695000 M⁻¹ s⁻¹; in assay [1] it was 429000 M⁻¹ s⁻¹; with human RSPO3, 480000 M⁻¹ s⁻¹.

B3: hu15F3.L4H2 (antibody, V domains shown)
VH: EVQLVESGGGVVQPGRSLRLSCAASGFTFSDYDMAWVRQAPGKGLEWVATIIYDGSRAYFGDSVRGRFTISRDNSKNTLYLQMNSLRAEDTAVYYCTAHDRSFDYWGQGTMVTVSS
VL: DIQMTQSPSSLSASVGDRVTITCLVSEDISNDFVWYQQKPGKAPKLLIYAASRLQDGVPSRFSGSGSGTDFTLTISSLQPEDFATYYCQQSYKYPPTFGQGTKLEIK
notes: CDR graft only (L4, H2); also called humanized 15F3
As to B3, in the assay with cynomolgus RSPO3, the Kd was 0.466 nM, the koff worked out at 0.000116 s⁻¹ and the association rate constant (kon) amounted to 248000 M⁻¹ s⁻¹. In assay [1], this molecule had a Kd of 0.775 nM, a koff of 0.000147 s⁻¹ and a kon of 190000 M⁻¹ s⁻¹. In the assay with human RSPO3, this molecule registered a Kd of 0.839 nM, a koff of 0.000164 s⁻¹ and a kon of 196000 M⁻¹ s⁻¹.

B4: chimeric 4A6 (antibody, V domains shown)
VH: EVQLVESGGGSVQPGRSLKVSCAASGFTFSDYDMAWVRQAPKKGLEWVATIIYDGSRTYYRDSVKGRFTLSRDNTKSTLCLQMDSLRSEDTATYYCAAHDRSFDYWGQGIMVTVSS
VL: DIQMTQSPASLSASLGETVSIECLASEDISNDLVWYQQKSGKSPQLLIYAASRLQDGVPSRFSGSGFGTRFSLKISGMQPEDEADYFCQQSYKYLPTFGAGTKLGLK
notes: Chimeric counterpart of hu4A6 with the rat 4A6 variable domains
On to B4, for which, in the assay with cynomolgus RSPO3, the equilibrium dissociation constant (Kd) was 0.174 nM, the off-rate constant (koff) is 3.36e-05 s⁻¹ and the kon was found to be 194000 M⁻¹ s⁻¹. In assay [1], this molecule came in with a Kd of 0.337 nM, a koff of 5.22e-05 s⁻¹ and an on-rate constant (kon) of 155000 M⁻¹ s⁻¹. In the assay with human RSPO3, this molecule displayed an equilibrium dissociation constant (Kd) of 0.363 nM, a koff of 5.85e-05 s⁻¹ and a kon of 161000 M⁻¹ s⁻¹.

B5: chimeric 15F3 (antibody, V domains shown)
VH: EVQLVESGGGLVQPGRSLKLSCAASGFTFSDYDMAWVRQAPKKGLEWVATIIYDGSRAYFGDSVRGRFTVSRDNTKSTLYLQMDSLRSEDTATYYCTAHDRSFDYWGQGVMVTVSS
VL: DIQMTQSPASLSASLGETVSIECLVSEDISNDFVWYQQKSGKSPQLLIYAASRLQDGVPSRFSGSGSGTRFSLRISGMQPEDEAEYFCQQSYKYPPTFGAGTKLELK
notes: Chimeric counterpart with the rat 15F3 variable domains
Regarding B5, in the assay with cynomolgus RSPO3, the equilibrium dissociation constant (Kd) is 0.576 nM, the off-rate constant (koff) is 0.000121 s⁻¹ and the kon amounted to 210000 M⁻¹ s⁻¹. Further, in assay [1], binding was characterised by a dissociation constant (Kd) of 0.926 nM, the off-rate (koff) was determined as 0.000156 s⁻¹ and the association rate constant (kon) is 169000 M⁻¹ s⁻¹. Also, in the assay with human RSPO3, the affinity, expressed as Kd, was 0.845 nM; the koff turned out to be 0.000151 s⁻¹; the kon was 179000 M⁻¹ s⁻¹.

B6: chimeric 11C10 (antibody, V domains shown)
VH: EVQLVESGGGLVQPGRSLKLSCAASGFTFSDYDMAWVRQAPKKGLEWVATIIYDGSRTYYRDSVKGRFTISRANAKSTLYLQMDSLRSEDTATYYCATHDKTFDYWGQGVMVTVSS
VL: DIQMTQSPASLSASLGETVTIECRASEDIYSDLAWYQQKPGNSPQLLIYDVNSLIHGVPSRFSGSGSGTQFSLKINNLQSEDVASYFCQQYDNYPNTFGAGTKLELK
notes: Chimeric counterpart with the rat 11C10 variable domains
With B6, in the assay with cynomolgus RSPO3, binding was characterised by a dissociation constant (Kd) of 1.52 nM, the off-rate (koff) was determined as 0.000963 s⁻¹ and the association rate constant (kon) came out at 633000 M⁻¹ s⁻¹. In assay [1], this molecule displayed a dissociation constant Kd of 2.76 nM, a koff of 0.00107 s⁻¹ and a kon of 388000 M⁻¹ s⁻¹. In the assay with human RSPO3, this molecule displayed a Kd of 2.67 nM, an off-rate constant (koff) of 0.00113 s⁻¹ and a kon of 425000 M⁻¹ s⁻¹.

B7: anti-RSPO3 antibody 5D6 (WO2015/058132) (antibody, V domains shown)
VH: EVQLQESGPSLVKPSQTLSLTCSVTGDSITSGYWNWIRKFPGNKFEYMGYISYSGKTYQNPSLKSRISITRDTSKNQYHLQLNSVTTEDTATYYCATYYGYGGPWFAYWGQGTLVTVSA
VL: DIVLTQSPSSMYASLGERVTITCKASQDIDSYLSWFQQKPGKSPKTLIYLTNRLVDGVPSRFSGSGSGQDYSLTISSLEYEDMGIYYCLHYDEFPLTFGAGTKLEIK
In the assay with cynomolgus RSPO3, B7 registered a Kd of 0.697 nM, an off-rate constant (koff) of 0.000321 s⁻¹ and a kon of 461000 M⁻¹ s⁻¹. In assay [1], this molecule returned a Kd of 0.913 nM, a dissociation rate constant (koff) of 0.000326 s⁻¹ and an on-rate (kon) of 357000 M⁻¹ s⁻¹. In the assay with human RSPO3, this molecule showed an equilibrium dissociation constant (Kd) of 0.485 nM, an off-rate (koff) of 0.000127 s⁻¹ and a kon of 261000 M⁻¹ s⁻¹.

A word on the Kd: it is the constant that tells how readily two partners part at equilibrium. Usually koff stands for the rate constant with which the complex falls apart. Read a low koff as slow dissociation. The kon is a measure of how fast the partners come together. Read a high kon as fast association.
